What was measured:
[1] = target: T1, t-PA-mediated plasminogen activation (Homo sapiens, UniProt P00750); assay: t-PA-mediated plasminogen conversion kinetics with and without S100A4 (Example 12); assay type: biochemical; conditions: for acceleration of plasmin formation (K units): 1 μM S100A4, 100 nM plasminogen
T1 construct: purchased Calbiochem
Method: The effects of peptide SEQ ID 6, peptide SEQ ID 38 and chimera SEQ ID 39 on acceleration oft-PA-mediated conversion of plasminogen to plasmin induced by S100A4 were measured. The kinetics of t-PA-mediated plasminogen activation were determined by measuring the amidolytic activity of plasmin formed during activation of plasminogen. All the experiments were done in 100 μl volume in 96-well plates in triplicates. Glu-plasminogen (Calbiochem) at the concentration of 100 nM was preincubated at 25° C. for 1 h in the presence or absence of 1 μM recombinant S100A4 in a buffer consisting of 50 mM Tris-HCl, pH 7.4, 100 mM NaCl and 5 mM CaCl2 or 5 mM EGTA. In some experiments, different concentrations of peptides or chimera were preincubated together with proteins. The reaction was initiated by addition of 5 nM t-PA (Calbiochem) and 125 μM chromogenic plasmin substrate, Chromozym PL (Roche). The reactions were monitored at 405 nm for 1.5 h in a SPECTRAmax PLUS^384 microplate spectrophotometer (Molecular Devices) under control of the SOFTmax PRO kinetic program (Molecular Devices). The initial rates of plasmin generation, during the first 10-15 min, were calculated using linear regression analysis of plots of A405 nm versus time 2. The initial rates of plasmin generation were reported in units (K) of A405 nm/min^2×10^3. […] The titration data were analyzed with the four-parameter logistic equation K=(A−D)/(1+(x/C)^B)D. If A, asymptotic minimum, =0, this equation is converted to the Michaelis-Menten equation K=D/(1+(C/[S])^B), where [S] is substrate concentration, D=Vmax, C=Km, and B is the Hill coefficient.
The addition of S100A4 to basal reaction (t-PA plus plasminogen) produced a significant increase in the plasminogen conversion rate. […] The stimulation of the plasminogen conversion by S100A4 was concentration-dependent with the half-maximal effect at 2.4 μM.
The kinetic parameters of t-PA-mediated plasminogen conversion were evaluated in the presence and absence of S100A4 as a function of plasminogen concentrations ranging from 3 nM to 3 μM.

annexin II = target: T2, annexin II (Homo sapiens, UniProt P07355); assay: Immunoprecipitation analysis of S100A4-annexin II complex formation; assay type: binding; conditions: monomer and aggregated forms, in Ca2+ or EGTA
T2 construct: GST (N); made in house; host or cells: E. coli ER2507
Method: S100A4 and annexin II proteins, both at the concentrations of 1.5 mg/ml, were pre-incubated overnight at 37° C. in TBS containing either 5 mM CaCl2, or 5 mM EGTA.
The formation of the S100A4-annexin II complex was analyzed by immunoprecipitation with an anti-S100A4 rabbit polyclonal antibody. To this end, the reaction mixture was incubated with the antibody (10 μg/ml) for 1 h at 37° C. and then precipitated by adding protein G-sepharose beads (Affi-Gel; Bio-Rad Laboratories, Hercules, Calif.) and incubating the resulted mixture for 1 h at room temperature. After that the beads were washed 3 times by 500 ul of TBS, boiled in Laemmli sample buffer for 5 min, and then loaded on SDS-PAAG. The proteins were then electro-transferred to a nitrocellulose membrane. The Western blot analysis was performed using anti-Annexin II antibody (BD Pharmingen) used at 1:5000 dilution and sheep anti-mouse antibody conjugated to horseradish peroxidase (Amersham Pharmacia Biotech, Piscataway, N.J.) used at 1:10000 dilution, followed visualization of the Annexin II bands by chemiluminescence.
However, the complex formation is more efficient in the case when the aggregated S100A4 are used. Additionally, the interaction between S100A4 (both monomer and oligomer) and annexin II is more efficient in the absence of Ca2+ (EGTA conditions) compared to that observed in the presence of Ca2+.

T1 sequence (P00750 36-562): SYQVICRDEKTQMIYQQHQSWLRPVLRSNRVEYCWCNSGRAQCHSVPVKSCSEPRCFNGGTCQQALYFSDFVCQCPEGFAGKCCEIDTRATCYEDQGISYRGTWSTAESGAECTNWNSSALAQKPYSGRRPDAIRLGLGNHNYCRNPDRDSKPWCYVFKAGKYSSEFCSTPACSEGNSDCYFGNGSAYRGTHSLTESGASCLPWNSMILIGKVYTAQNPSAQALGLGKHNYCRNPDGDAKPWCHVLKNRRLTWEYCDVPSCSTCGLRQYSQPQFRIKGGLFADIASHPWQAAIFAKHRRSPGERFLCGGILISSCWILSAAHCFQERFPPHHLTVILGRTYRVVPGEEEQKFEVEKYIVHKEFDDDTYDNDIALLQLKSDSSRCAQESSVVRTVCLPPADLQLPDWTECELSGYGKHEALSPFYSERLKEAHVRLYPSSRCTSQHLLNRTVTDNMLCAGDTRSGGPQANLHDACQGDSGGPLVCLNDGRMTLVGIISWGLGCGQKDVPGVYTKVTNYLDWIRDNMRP
T2 sequence (P07355 2-339 V98L): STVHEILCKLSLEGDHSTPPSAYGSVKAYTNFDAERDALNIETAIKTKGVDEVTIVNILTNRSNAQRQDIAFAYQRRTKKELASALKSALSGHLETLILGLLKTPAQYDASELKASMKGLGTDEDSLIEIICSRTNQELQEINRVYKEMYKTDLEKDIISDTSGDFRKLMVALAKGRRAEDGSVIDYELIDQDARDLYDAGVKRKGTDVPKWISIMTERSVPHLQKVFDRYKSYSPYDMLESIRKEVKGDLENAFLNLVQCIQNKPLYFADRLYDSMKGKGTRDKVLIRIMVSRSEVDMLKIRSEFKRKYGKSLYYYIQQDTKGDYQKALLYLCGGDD
T2 sequence (P26447 whole entry partner): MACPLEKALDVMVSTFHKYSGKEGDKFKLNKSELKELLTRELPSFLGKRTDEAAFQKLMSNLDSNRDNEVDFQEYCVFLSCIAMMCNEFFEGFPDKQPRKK

plasmin generation in the absence of t-PA ([1]; no t-PA): plasmin generation did not take place
acceleration of plasmin formation (K units) ([1]; presence of Ca2+): 15 fold
acceleration of plasmin formation (K units) ([1]; presence of EGTA): 11 fold
Substance: S100A4: recombinant human S100A4 protein cloned from human placenta total RNA, Ca-binding protein of S100 family
EC50 ([1]; concentration-dependent stimulation, read-out: half-maximal effect of stimulation of plasminogen conversion): 2400 nM
Km ([1]; plasminogen 3 nM to 3 μM, read-out: Km of the t-PA-mediated plasminogen conversion): 0.059 µM
increase in the catalytic efficiency (Vmax/Km) of t-PA ([1]; presence of EGTA): 7.6 fold
increase in the catalytic efficiency (Vmax/Km) of t-PA ([1]; presence of calcium): 10 fold
complex formation with annexin II (annexin II): capable of complex formation with annexin II

From patent publication US20050277575A1, “Therapeutic compositions and methods for treating diseases that involve angiogenesis” (priority 2004, published 2005)
